Where a chain is given by its changes, count along the chain named.
Columns and labels:
[1] = tested on: sympathetic neurons from chick embryo sympathetic chain ganglia; assay: Neuronal survival assay (MTT), sympathetic chain ganglia; type: cell-based; details: for fold lower than refolded rhGDNF in sympathetic neuron survival bioassay / apparent ED50 in the sympathetic neuron survival bioassay: prior to refolding; for apparent ED50 in the sympathetic neuron survival bioassay: exposed to 30 mM 2-mercaptoethanol
Experimental: Cultures of primary check embryo ciliary ganglia and sympathetic chain ganglia were prepared as previously described (Collins 1978 Develop. Biol. 65:50; Manthorpe et al. 1986 Develop. Brain Res. 25:191). Briefly, ciliary or sympathetic ganglia were removed from fertile, pathogen free chicken eggs that had been incubated for 8 and 10 days, respectively, at 38° C. in a humidified atmosphere. The ganglia were chemically dissociated by exposure first to Hands' Balanced Salt Solution without divalent cations, containing 10 mM HEPES buffer pH 7.2 for 10 min at 37° C., and then by exposure to a solution of 0.125% bactotrypsin 1:250 (Difco, Detroit, Mich.) in Hanks' Balanced Salt Solution modified as above for 12 min at 37° C. Trypsinization was stopped by addition of fetal calf serum to a final concentration of 10%.
After this treatment, ganglia were transferred to a solution consisting of Dulbecco's high glucose Modified Eagle Medium without bicarbonate containing 10% fetal calf serum and 10 mM HEPES, pH 7.2 and were mechanially dissociated by trituration approximately 10 times through a glass Pasteur pipet whose opening had been fire polished and constricted to a diameter such that it took 2 seconds to fill the pipet.
The dissociated ganglia were then plated in culture medium (Dulbecco's Modified Eagle Medium supplemented with 10% fetal calf serum, 4 mM glutamine, 60 mg/L penicillin-G, 25 mM HEPES, pH 7.2) in 100 mm diameter tissue culture dishes (40 dissociated ganglia per dish) for three hours. […] After three hours, the nonadherent nerve cells were collection by centrifugation, resuspended in culture medium, and plated in 50 μl per well onto half area 96 well microtiter tissue culture plates at a density of 1500 nerve cells per well. The microtiter wells had been previously exposed to a 1 mg/ml solution of poly-L-ornithine in 10 mM sodium borate, pH 8.4 overnight at 4° C., washed in distilled water and air dried.
Ten μl of a serial dilution of the sample to be assayed for neurotrophic activity was added to each well and the dishes were incubated for 20 hours at 37° C. in a humidified atmosphere containing 7.5% CO2. After 18 hours for ciliary and 40 hours for sympathetic ganglia, 15 μl per well of a 1.5 mg/ml solution of the tetrasolium dye MTT in Dulbecco's high glucose Modified Eagle Medium without bicarbonate containing 10 mM HEPES, pH 7.2, was added and the cultures placed in the 37° C. incubator for 4 hours. Then, 75 μl of a solution of 6.7 ml of 12 M HCl per liter of isopropanol was added and the contents of each well triturated 30 times to break open the cells and suspend the dye. The absorbance of 570 nm was determined relative to a 690 nm reference for each well using an automatic microtiter plate reader (Dynatech, Chantilly, Va.). The absorbance of wells which had not received any neurotrophic agent (negative controls) was substracted from the absorbance of sample-containing wells. The resulting absorbance is proportional to the number of living cells in each well, defined as those nerve cells capable of reducing the dye. The number of trophic units of neurotrophic activity was defined as the reciprocal of the dilution that gave 50% of maximal survival of nerve cells. Specific activity was determined by dividing the number of trophic units by the amount of protein present in the sample.

[2] = tested on: dopaminergic neurons in rat embryo (E16) mesencephalic cell cultures; assay: Bioassay for dopaminergic neurotrophic activity: 3H-dopamine uptake in dissociated mesencephalic cell cultures; type: cell-based; details: for SP. ACT (specific activity, dopamine uptake trophic units per protein): TU = reciprocal of dilution giving 50% of maximal stimulation of 3H-DA uptake; for FOLD (specific activity relative to B49 conditioned medium): purification fold over CM; for BIOACTIVITY: total trophic units at purification step; for ED50 for increasing dopamine uptake: rat embryo (E16) mesencephalic culture
Experimental: The dopaminergic activity of the GDNF is used to facilitate the purification process. […] Briefly, cultures of dissociated mesencephalic cells are prepared, either in serum rich or serum free environments. Samples to be tested for dopaminergic activity are desalted and serially added to the cell cultures and the dishes are incubated for 6 days at 37° C. in a humidified atmosphere containing 6.5% CO2. The cultures, in the presence of the testing material, are then incubated at 37° C. with tritiated dopamine (^3H-DA). The dopamine uptake is halted, the cells washed, and the dopamine uptake analyzed by scintillation counting of retained tritium in the cultures.
Culture conditions: Dissociated mesencephalic cell cultures were prepared as previously described (Friedman and Mytilineou 1987 Neurosci. Lett. 79:65-72), with minor modifications. Briefly, rostral mesencephalic tegmentum from brains of Sprague-Dawley rat embryos, at the 16th day of gestation, were dissected under the microscope in sterile conditions, collected in Ca^2+- and Mg^2+-free Dulbecco's phosphate buffered saline (Gibco, Gaithersburg, Md.) and dissociated mechanically by mild trituration. The cells were plated in 100 μl per well onto 16-mm diameter tissue culture wells (Falcon, Lincoln Park, N.J., 24-well plate) containing 400 μl medium to give a density of 2.5-3.5×10^5 cells per well. The culture wells had been previously exposed to 0.1 mg/ml solution of poly L-ornithine in 10 mM sodium borate, pH 8.4, for 3 hours at 37° C., washed 3 times in milli-Q H2O and once in Earle's balanced salt solution (Gibco). The feeding medium (10/10) consisted of minimal essential medium (MEM, Gibco) supplemented with glucose (33 mM), sodium bicarbonate (24.5 mM), glutamine (2 mM), HEPES (15 mM), penicillin G (5 U/ml), streptomycin (5 μg/ml), 10% heat-inactivated fetal calf serum (Gibco) and 10% heat inactivated horse serum (Gibco). The cultures were kept at 37° C. in a water-saturated atmosphere containing 6.5% CO2. After 3 hours, when most of the cells had adhered to the bottom of the well, the medium was replaced with 500 μl of fresh medium. At this time, a serial dilution of the sample to be assayed for GDNF activity was added to each well in duplicate and the plates were incubated in the 37° C. incubator. After a week, the cultures were treated for 24 hours with fluorodeoxyuridine (13 μg/ml) and uridine (33 μg/ml) to prevent excessive glial proliferation and subsequently fed with the above medium without fetal calf serum. The feeding medium was changed weekly.
Alternatively, chemically defined serum-free medium was used in which serum was replaced by a mixture of proteins; hormones and salts. The defined medium (DM) consisted of a mixture of MEM and F12 nutrient mixture (both Gibco, 1:1; vol/vol) with glucose (33 mM), glutamine (2 mM) NaHCO3 (24.5 mM), HEPES (15 mM), supplemented with transferrin (100 μg/ml), insulin (25 μg/ml), putrescine (60 μM), progesterone (20 nM), sodium selenite (30 nM), penicillin G (5 U/ml) and streptomycin (5 μg/ml). The osmolarity of the DM was adjusted to 325 by the addition of milli-Q H2O. (110-125 ml H2O/l). […] All assays reached in the following examples were done in serum-containing medium.
The functional status of the dopaminergic neurons may be assayed in these cultures by measuring dopamine uptake through specific “scavenger” transporters in the dopaminergic neurons and by counting the number of neurons positive for the dopamine synthetic enzyme tyrosine hydroxylase using immunohistochemistry.

B1: GDNF prior to refolding: E. coli-expressed human GDNF, exposed to 2-mercaptoethanol and purified by S- or Q-Sepharose, before refolding (protein, UniProt P39905 78-211, looked up)
Glial cell line-derived …: SPDKQMAVLPRRERNRQAAAANPENSRGKGRRGQRGKNRGCVLTAIHLNVTDLGLGYETKEELIFRYCSGSCDAAETTYDKILKNLSRNRRLVSDKVGQACCRPIAFDDDLSFLDDNLVYHILRKHSAKRCGCI
modifications: unrefolded, E. coli-expressed
In the case of B1, the “bioactivity in sympathetic neuron survival bioassay” value [1] is reported as “greatly reduced bioactivity” and the “bioactivity in dopamine uptake assay” value [2] is reported as “no detectable bioactivity”.

B2: 3. RP-HPLC: GDNF after first reverse-phase HPLC (protein, UniProt Q07731 78-211, looked up)
Glial cell line-derived …: B1 Glial cell line-derived … with M6A, V8A, N22S, D73E, T78M, N89S, V93T, I105V, N117S
modifications: purification fraction
B2 was tested, and the “SP. ACT (specific activity, dopamine uptake trophic units per protein)” value [2] was 12,000 TU/μg, the “FOLD (specific activity relative to B49 conditioned medium)” value [2] was 24,000 and the BIOACTIVITY [2] was 12 TU × 10^−3.

B3: 4. Preparative SDS-PAGE: GDNF eluted from preparative non-reducing SDS-PAGE (protein, UniProt Q07731 78-211, looked up)
Glial cell line-derived …: B1 Glial cell line-derived … with M6A, V8A, N22S, D73E, T78M, N89S, V93T, I105V, N117S
modifications: purification fraction
B3 gave a BIOACTIVITY [2] of 7 TU × 10^−3.

B4: Q-Sepharose chromatographed material: unrefolded sulfonylated human GDNF extract partially purified on Q-Sepharose (protein, UniProt P39905 78-211, looked up)
Glial cell line-derived …: B1 Glial cell line-derived …
modifications: unrefolded, sulfonylated
In the case of B4, the “fold lower than refolded rhGDNF in sympathetic neuron survival bioassay” value [1] is reported as “about 100 fold” and the “apparent ED50 in the sympathetic neuron survival bioassay” value [1] is reported as “about 3 μg/ml”.

B5: S-Sepharose chromatographed material: unrefolded human GDNF TU extract partially purified on S-Sepharose (protein, UniProt P39905 78-211, looked up)
Glial cell line-derived …: B1 Glial cell line-derived …
modifications: unrefolded, partially purified
B5 was tested, and the “fold lower than refolded rhGDNF in sympathetic neuron survival bioassay” value [1] was “about 333 fold” and the “apparent ED50 in the sympathetic neuron survival bioassay” value [1] was “about 1 μg/ml”.

B6: 5. RP-HPLC: GDNF peak 3 after second reverse-phase HPLC (protein, UniProt Q07731 78-211, looked up)
Glial cell line-derived …: B1 Glial cell line-derived … with M6A, V8A, N22S, D73E, T78M, N89S, V93T, I105V, N117S
modifications: purification fraction
notes: GDNF peak 3 after second reverse-phase HPLC
In the case of B6, the “SP. ACT (specific activity, dopamine uptake trophic units per protein)” value [2] is reported as 17,000 TU/μg, the “FOLD (specific activity relative to B49 conditioned medium)” value [2] is reported as 34,000 and the BIOACTIVITY [2] is reported as 5 TU × 10^−3.

B7: refolded GDNF: recombinant mature human GDNF expressed in E. coli and refolded (protein)
chain: SNMPEDYPDQFDDVMDFIQATIKRLKRSPDKQMAVLPRRERNRQAAAANPENSRGKGRRGQRGKNRGCVLTAIHLNVTDLGLGYETKEELIFRYCSGSCDAAETTYDKILKNLSRNRRLVTDKVGQACCRPIAF
B7 was tested, and the “bioactivity in sympathetic neuron survival bioassay” value [1] was “fully active”, the “ED50 for sympathetic neuron survival” value ([1]; chick embryo (E10) sympathetic ganglia) was “about 3 ng/ml” and the “bioactivity in dopamine uptake assay” value [2] was “fully active”. The “ED50 for increasing dopamine uptake” value [2] was “about 3 pg/ml” and the “ED50 for increasing dopamine uptake” value ([2]; listed as rhGDNF) was “about 30 pg/ml”.

Reference: patent US6362319B1, “Glial cell line-derived neurotrophic factor” (Amgen Inc., priority 1991, dated 2002)
